Experimental data: article PMC11436757, “BRCA2 stabilises RAD51 and DMC1 nucleoprotein filaments through a conserved interaction mode” (Nature Communications, 2024)
Entries after “also recorded” stand apart in the source; their conditions may differ. Read-outs that look alike come from different tables or passages of the source. One block for each molecule: values may come before it. No end group written: not given here.

B1: DMC1 ΔN (amino-acids 83-340), purified (domain or fragment, human, UniProt Q14565 83-340, looked up)
chain: PGFLTAFEYSEKRKMVFHITTGSQEFDKLLGGGIESMAITEAFGEFRTGKTQLSHTLCVTAQLPGAGGYPGGKIIFIDTENTFRPDRLRDIADRFNVDHDAVLDNVLYARAYTSEHQMELLDYVAAKFHEEAGIFKLLIIDSIMALFRVDFSGRGELAERQQKLAQMLSRLQKISEEYNVAVFVTNQMTADPGATMTFQADPKKPIGGHILAHASTTRISLRKGRGELRIAKIYDSPEMPENEATFAITAGGIGDAKE
modifications: amine reactive fluorescent dye (Monolith Protein Labelling Kit BLUE-NHS) in the MST only
notes: human DMC1 with its N-terminal domain deleted, amino acids 83-340; Octameric ring in the crystal and in solution; also called DMC1 core; structural core of human DMC1; source: E. coli BL21 (DE3), purified (Ni-NTA, HiTrap Q, TEV cleavage, HiTrap Q, SEC)

What was measured:
[1] = target: B1; test: MST; DMC1 ΔN or loop mutant labelled with BLUE-NHS dye, constant at 150 nM; peptide titrated in 1:1 dilutions starting from 750 µM; 10 mM HEPES pH 8.0, 150 mM NaCl, 0.05 % Tween-20; room temperature (~22 °C); affinities derived from initial fluorescence
DMC1 ΔN [2] = target: T1, DMC1 ΔN (Homo sapiens, UniProt Q14565); test: Microscale thermophoresis (MST), BRCA2 peptides and DMC1 ΔN; type: binding; settings: labelled DMC1 ΔN 150 nM
T1 construct: DMC1 ΔN (83-340) were cloned into pHAT4; His6 (TEV-cleavable) (N, cleaved yes); made in house; host or cells: E. coli BL21 (DE3)
T1 sequence (Q14565 83-340): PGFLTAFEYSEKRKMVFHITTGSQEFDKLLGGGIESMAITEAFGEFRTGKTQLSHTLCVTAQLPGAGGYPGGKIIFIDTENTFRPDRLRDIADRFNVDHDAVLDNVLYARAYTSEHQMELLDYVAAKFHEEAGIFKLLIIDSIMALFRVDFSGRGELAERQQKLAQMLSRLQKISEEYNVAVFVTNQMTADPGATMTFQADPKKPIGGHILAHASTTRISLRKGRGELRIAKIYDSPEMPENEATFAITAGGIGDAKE
Experimental: DMC1 ΔN and DMC1 ΔN loop mutant were labelled in 10 mM HEPES pH 8.0, 150 mM NaCl with an amine reactive fluorescent dye (MonolithTM Protein Labelling Kit BLUE-NHS, Nanotemper GmbH). A serial dilution of titrant (peptide) was prepared in 10 mM HEPES pH 8.0, 150 mM NaCl, 0.05 % Tween-20. The concentration of labelled DMC1 ΔN or DMC1 ΔN loop mutant were constant at 150 nM and the concentration of the interacting peptide was titrated in 1:1 dilutions starting from 750 µM. An equal volume (10 µl) of the serial dilution and of the diluted labelled DMC1 were mixed and loaded in glass capillaries (MonolithTM NT.115 MST Premium Coated Capillaries, Nanotemper GmbH). The initial fluorescence and the thermophoretic mobility were measured on a Monolith NT.115 system (NanoTemper Technologies). The excitation power was 45 % and MST power was 60 % at room temperature (~22 °C). Laser on and off times were set at 5 and 30 seconds, respectively. Data analysis was performed with NT Affinity Analysis software.
As a change in initial fluorescence was detected, SDS denaturation (SD) tests were performed according to the manufacturer’s instructions to determine whether these changes were ligand-induced and whether the data could therefore be used to derive affinity measurements. Briefly, 7 µl of the samples containing the three highest and three lowest concentrations of peptide were mixed with 7 µl of denaturation buffer (4 % SDS, 40 mM DTT). After incubating each for 5 minutes at 95 °C to denature the proteins and subject to brief centrifugation, the samples were loaded onto Premium Coated Capillaries and their initial fluorescence measurements recorded. […] Initial fluorescence readings were used to derive binding affinities.

DMC1 ΔN [3] = target: T1, DMC1 ΔN; test: Amylose pull-down of DMC1 ΔN with MBP-BRCA2 fusions; type: binding; settings: recombinant co-expression with MBP-BRCA2 fusion
Source text: For affinity pulldown experiments, MBP-fusions of BRCA2 fragments (Ex14, amino-acids 2387-2420, Ex14-Tr, amino acids 2401-2414, Ex27, amino acids 3270-3315, BRC4, amino acids 1519-1551) were cloned into pMAT11 vectors[54] and co-expressed with DMC1 ΔN, DMC1 ΔN loop mutant (in which DMC1 amino acids 147-GAGGYPG-153 and 178-NVDHDA-183 were replaced by the cognate sequences of RAD51 148-IDRGGGE-154 and 179-GLSGSD-184), RAD51 ΔN, RAD51 ΔN loop mutant (the reverse switch of DMC1 ΔN loop mutant), and RAD51. MBP-fusions and complexes were purified through amylose affinity chromatography.

DMC1-ssDNA filaments [4] = test: EMSA, stimulation of DMC1-ssDNA filament formation (TAE pH 7.5); type: biochemical, human
Source text: (§1) What is the function of the BRCA2 Ex14-DMC1 interaction? We used electrophoretic mobility shift assays (EMSAs) to determine the impact of BRCA2-binding on DMC1 nucleoprotein filaments. We used two different conditions for nucleoprotein filament assembly. Firstly, a TAE (tris, acetate, EDTA; pH 7.5) buffer that was previously used for RAD51-ssDNA filaments, in which DMC1-ssDNA filaments were partially formed at the canonical ratio of three nucleotides to one protomer (Fig. 3a). Secondly, a TEA (triethanolamine; pH 7.5) + KCl buffer based on previous DMC1 studies[36]–[38], in which DMC1-ssDNA filament formation was more complete at the canonical ratio (Fig. 3b). […] This was noticeable using Ex14 in equimolar amounts (11 μM), and became substantial at a 5-fold stoichiometric excess (55 μM) (Fig. 3b). As the KD of the DMC1-Ex14 interaction is approximately 30 μM (Fig. 2a), the requirement for a stoichiometric excess is likely due to binding being favoured at Ex14 concentrations above the KD.
(§2) To form nucleoprotein filaments, DMC1 and RAD51 was incubated with fluorescent 100-base ssDNA (5’-FAM- […]-3’) at the concentrations indicated in the figures for 30 minutes at 4 °C in reaction buffer. For DMC1, reaction buffer is 25 mM TEA (triethanolamine) pH 7.5, 1 mM ATP, 2 mM MgCl2, 0.1 mg/ml BSA, 2 mM DTT, 200 mM KCl. For RAD51, reaction buffer is 50 mM TEA (triethanolamine), 2 mM ATP, 0.5 mM MgCl2, 2 mM DTT. For assays requiring incomplete nucleoprotein filament assembly, the reaction buffer consisted of 50 mM TAE (tris, acetate, EDTA) pH 7.5, 2 mM ATP, 2 mM MgCl2, 2 mM DTT. In nucleoprotein formation stimulation assays or supershift experiments, BRCA2Ex14 or BRCA2Ex14-AAA were added for a further 30 min at 4 °C. […] Glycerol was added at a final concentration of 3%, and samples were analysed by electrophoresis on a 1% (w/v) (for DMC1) or 0.66% (w/v) (for RAD51) agarose gel in 0.5x TAE pH 8.0 at 20–40 V for ~4 h at 4 °C. DNA was detected by FAM using a Typhoon^TM FLA 9500 (GE Healthcare), with 473 nm laser at excitation wavelength 490 nm and emission wavelength 520 nm, using the LPB filter and a PMT voltage of 500 V. To analyse RAD51 nucleoprotein filaments assembled upon 100-base poly(dT) ssDNA, gels were stained post-run using SYBR^TM Gold Nucleic Acid Gel Stain (Invitrogen) and detected using a Typhoon^TM FLA 9500 (GE Healthcare).

DMC1-ssDNA filaments [5] = test: EMSA, super-shift of DMC1-ssDNA filaments (TEA pH 7.5 + KCl); type: biochemical, human; settings: 100-nt random ssDNA, 4 °C
Source text: as §1, §2

[6] = test system: DMC1 V179E-ssDNA filaments; test: EMSA, super-shift of filaments formed using DMC1 V179E; type: biochemical, human
Experimental: as §2

DMC1-ssDNA filaments [7] = test: EMSA, protection of DMC1-ssDNA filaments from BRC4-mediated disruption; type: biochemical, human; settings: TEA pH 7.5 + KCl; Ex14 10-fold stoichiometric excess (110 μM); 10-fold excess of BRC4
Experimental: Finally, we tested whether binding of BRCA2 Ex14 protects DMC1-ssDNA nucleoprotein filaments from BRC4-mediated disruption (Fig. 3c). […] Further, whilst the core PhePP interaction site is sufficient to stimulate DMC1-ssDNA nucleoprotein filament formation, surrounding amino-acids that are present within Ex14 (but not Ex14-Tr) are necessary to super-shift filaments and confer protection from BRC4-mediated disruption.
as §2

RAD51-ssDNA filaments = test: EMSA, protection of RAD51-ssDNA filaments from BRC4-mediated disruption (random sequence ssDNA); type: biochemical; settings: 100-nt random ssDNA; 10-fold excess of Ex27
Experimental: as §2

[8] = test system: RAD51-ssDNA (polydT) filaments; test: EMSA, protection of RAD51-ssDNA (polydT) filaments from BRC4-mediated disruption; type: biochemical; settings: 100-nt polydT; 10-fold excess of Ex27
Experimental: as §2

[9] = target: the molecule itself; test: crystal structure; DMC1 ΔN crystals soaked overnight with 3.5 mM BRCA2 Ex14-Tr peptide; anisotropic resolution limits 3.4-5.8 Å; peptide built with the guide of an AlphaFold2 model
[10] = target: the molecule itself; test: SEC-MALS; Superdex 200 Increase 10/300 GL, 20 mM Tris pH 8.0, 150 mM KCl, 2 mM DTT; the loop mutant also by SEC-SAXS
RAD51;BRCA2 Ex27 = RAD51;BRCA2 Ex27 (Homo sapiens?;Homo sapiens?, UniProt Q06609;P51587 1-339;3270-3315, |); test: EMSA, BRC4 protection; 10-fold excess Ex27 + BRC4, complete protection; largely protected at 33 µM Ex27; DMC1: 25 mM TEA (triethanolamine) pH 7.5, 200 mM KCl, 1 mM ATP, 2 mM MgCl2, 0.1 mg/ml BSA, 2 mM DTT, or 50 mM TAE pH 7.5, 2 mM ATP, 2 mM MgCl2, 2 mM DTT; RAD51: 50 mM TEA, 2 mM ATP, 0.5 mM MgCl2, 2 mM DTT; all 4 C, agarose gel in 0.5x TAE; settings: tags: ;; label: none (SYBR Gold post-stain); single strand

Kd [1]: > 96 µM
Molecule: BRCA2 Ex27 peptide (amino acids 3270-3315) (from UniProt P51587 3270-3315)

binding in pull-down (DMC1 ΔN [3]): not
Molecule: Ex14-AAA: Ex14 with alanine mutations F2406A, P2408A, P2409A (ATRNEKMRHLITTGRPTKVAVAAFKTKSHFHRVE; left off: His6, end not stated, cleaved | MBP, end not stated, cleaved)
interaction by MST (in words) (DMC1 ΔN [2]; pH 8.0): largely disrupted; also recorded: not detectable | stimulation of DMC1-ssDNA nucleoprotein filament formation (DMC1-ssDNA filaments [4]; TAE pH 7.5, 100-nt random ssDNA, 4 °C, canonical ratio of three nucleotides to one protomer, equimolar for Ex14): largely failed to stimulate filament formation | stimulation of DMC1-ssDNA filament formation at high concentrations (DMC1-ssDNA filaments [4]; high peptide concentrations): partial stimulation; also recorded: some stimulation of filament formation | super-shift of pre-formed DMC1-ssDNA filaments (DMC1-ssDNA filaments [5]): largely failed to stimulate or super-shift; also recorded: largely eliminated | super-shift of DMC1 V179E-ssDNA filaments [6]: The residual super-shift was the same | protection of DMC1-ssDNA filaments from BRC4-mediated disruption (DMC1-ssDNA filaments [7]): almost completely lost; also recorded: largely abrogated | protection of RAD51-ssDNA filaments from BRC4-mediated disruption (RAD51-ssDNA filaments): not | protection of RAD51-ssDNA (polydT) filaments from BRC4-mediated disruption [8]: not

Kd (DMC1 ΔN [2]; MST from initial fluorescence, 10 mM HEPES pH 8.0, 150 mM NaCl, 0.05 % Tween-20, ~22 °C, mean, n = 3 independent experiments): 35.7 µM
Molecule: RPTKVFVPPFKTKS [Ex14-Tr]

The next lines start with the molecule.

Molecule: B1
stoichiometry N [9]: 8

B2: His-DMC1 ΔN V179E mutant (domain or fragment, human, UniProt Q14565 83-340, looked up)
chain: PGFLTAFEYSEKRKMVFHITTGSQEFDKLLGGGIESMAITEAFGEFRTGKTQLSHTLCVTAQLPGAGGYPGGKIIFIDTENTFRPDRLRDIADRFNEDHDAVLDNVLYARAYTSEHQMELLDYVAAKFHEEAGIFKLLIIDSIMALFRVDFSGRGELAERQQKLAQMLSRLQKISEEYNVAVFVTNQMTADPGATMTFQADPKKPIGGHILAHASTTRISLRKGRGELRIAKIYDSPEMPENEATFAITAGGIGDAKE
notes: human DMC1 ΔN (83-340) with V179E, cloned into pHAT4; His tag named on the protein in the pull-down; also called His6-DMC1 mutant; source: E. coli, in lysate (pull-down); purified for SEC-MALS (purification not described)
stoichiometry N [10]: 8

B3: 100-nt poly(dT) (ssDNA)
DNA: TTTTTTTTTTTTTTTTTTTTTTTTTTTTTTTTTTTTTTTTTTTTTTTTTTTTTTTTTTTTTTTTTTTTTTTTTTTTTTTTTTTTTTTTTTTTTTTTTTTT
binding result (RAD51;BRCA2 Ex27): binds

B4: DMC1 ΔN loop mutant, purified (domain or fragment, human, UniProt Q14565 83-340, looked up)
chain: PGFLTAFEYSEKRKMVFHITTGSQEFDKLLGGGIESMAITEAFGEFRTGKTQLSHTLCVTAQLPIDRGGGEGKIIFIDTENTFRPDRLRDIADRFGLSGSDVLDNVLYARAYTSEHQMELLDYVAAKFHEEAGIFKLLIIDSIMALFRVDFSGRGELAERQQKLAQMLSRLQKISEEYNVAVFVTNQMTADPGATMTFQADPKKPIGGHILAHASTTRISLRKGRGELRIAKIYDSPEMPENEATFAITAGGIGDAKE
modifications: amine reactive fluorescent dye (Monolith Protein Labelling Kit BLUE-NHS) in the MST only
notes: The purification of the mutant is not described; probably as for DMC1 ΔN (His6 tag cleaved)
stoichiometry N [10]: 8

B5: BRCA2 Ex14-Tr peptide (amino acids 2401-2414) (peptide)
peptide: RPTKVFVPPFKTKS
notes: human BRCA2 Ex14 truncated, amino acids 2401-2414; also called truncated Ex14; source: synthetic peptide (Severn Biotech)
Kd ([1]; both partners purified): 36 µM

B6: BRCA2 Ex14 (amino acids 2387-2420), purified (peptide, UniProt P51587 2387-2420, looked up)
chain: ATRNEKMRHLITTGRPTKVFVPPFKTKSHFHRVE
notes: human BRCA2 exon 14 PhePP region, amino acids 2387-2420; source: E. coli BL21 (DE3), purified (Ni-NTA, HiTrap Q, TEV cleavage, HiTrap SP, SEC)
Kd ([1]; both partners purified): ~30 µM
